# Assay results: PMC6888877, “Deconstructing and repurposing the light-regulated interplay between Arabidopsis phytochromes and interacting factors” (Communications Biology, 2019)
# T1: P3.As-EYFP (Arabidopsis thaliana)
# T1 chain: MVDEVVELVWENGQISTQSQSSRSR
# T2: P3.AAfus-EYFP (Arabidopsis thaliana)
# T2 chain: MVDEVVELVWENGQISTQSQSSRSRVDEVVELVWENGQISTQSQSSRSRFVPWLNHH
# T3: P6.fus-EYFP (Arabidopsis thaliana)
# T3 chain: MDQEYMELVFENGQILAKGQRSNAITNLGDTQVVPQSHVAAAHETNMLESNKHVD
# T4: AtPIF3 (1-100)-EYFP, P3.100 (Arabidopsis thaliana, UniProt O80536 1-100)
# T4 sequence (looked up): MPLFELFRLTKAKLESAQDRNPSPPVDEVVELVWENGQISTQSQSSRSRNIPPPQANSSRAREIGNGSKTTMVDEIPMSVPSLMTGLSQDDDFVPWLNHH
# T5: AtPIF6 (1-100)-EYFP, P6.100 (Arabidopsis thaliana, UniProt Q8L5W7 1-100)
# T5 sequence (looked up): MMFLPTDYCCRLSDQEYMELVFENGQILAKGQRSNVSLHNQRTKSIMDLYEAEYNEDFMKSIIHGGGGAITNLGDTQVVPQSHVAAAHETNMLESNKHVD
# T6: P6.A-EYFP (Arabidopsis thaliana)
# T6 chain: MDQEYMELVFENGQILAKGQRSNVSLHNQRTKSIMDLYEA
# B1: Arabidopsis thaliana phytochrome B photosensory core module (AtPhyB PCM) (domain or fragment, UniProt P14713 1-651, looked up)
# chain: MVSGVGGSGGGRGGGRGGEEEPSSSHTPNNRRGGEQAQSSGTKSLRPRSNTESMSKAIQQYTVDARLHAVFEQSGESGKSFDYSQSLKTTTYGSSVPEQQITAYLSRIQRGGYIQPFGCMIAVDESSFRIIGYSENAREMLGIMPQSVPTLEKPEILAMGTDVRSLFTSSSSILLERAFVAREITLLNPVWIHSKNTGKPFYAILHRIDVGVVIDLEPARTEDPALSIAGAVQSQKLAVRAISQLQALPGGDIKLLCDTVVESVRDLTGYDRVMVYKFHEDEHGEVVAESKRDDLEPYIGLHYPATDIPQASRFLFKQNRVRMIVDCNATPVLVVQDDRLTQSMCLVGSTLRAPHGCHSQYMANMGSIASLAMAVIINGNEDDGSNVASGRSSMRLWGLVVCHHTSSRCIPFPLRYACEFLMQAFGLQLNMELQLALQMSEKRVLRTQTLLCDMLLRDSPAGIVTQSPSIMDLVKCDGAAFLYHGKYYPLGVAPSEVQIKDVVEWLLANHADSTGLSTDSLGDAGYPGAAALGDAVCGMAVAYITKRDFLFWFRSHTAKEIKWGGAKHHPEDKDDGQRMHPRSSFQAFLEVVKSRSQPWETAEMDAIHSLQLILRDSFKESEAAMNSKVVDGVVQPCRDMAGEQGIDELGA
# modifications: covalently incorporated bilin chromophore (PCB; co-expressed Synechocystis sp. heme oxygenase 1 and pcyA)
# notes: A. thaliana phytochrome B, photosensory core module (PAS-GAF-PHY with N-terminal extension), residues 1-651; Pr state (far-red light or dark) and Pfr state (red light; Pfr/Pr about 0.56/0.44) are told apart by the assays; In the cell experiments other constructs were used (PCM-VP16; PCM 1-650 with CAAX); source: E. coli BL21(DE3), plasmid pDG282, purified (Ni-NTA IMAC, anion exchange)
# Experiments:
# P3.As-EYFP = target: T1, P3.As-EYFP; assay: SEC; 50 µM AtPhyB PCM + 10 µM AtPIF-EYFP (5:1), illuminated with red light (650 nm, 2 min; results say 640 nm), Pfr state; Superdex 200 Increase 10/300 GL; 67 mM sodium phosphate pH 8.0, 200 mM NaCl; details: both partners purified
# P3.AAfus-EYFP = target: T2, P3.AAfus-EYFP; assay: as above; details: both partners purified
# P6.fus-EYFP = target: T3, P6.fus-EYFP; assay: as above; details: both partners purified
# [1] = target: T4, AtPIF3 (1-100)-EYFP, P3.100; assay: cell-based or functional assay
# [2] = target: T5, AtPIF6 (1-100)-EYFP, P6.100; assay: cell-based or functional assay
# P6.A-EYFP = target: T6, P6.A-EYFP; assay: cell-based or functional assay
binder,measurement,setting,value
B1,stoichiometry N,P3.As-EYFP,1
same,stoichiometry N,P3.AAfus-EYFP,1
same,stoichiometry N,P6.fus-EYFP,1
same,"normalized SEAP reporter expression in CHO-K1 cells, split transcription factor (AtPhyB PCM-VP16 + E-protein-AtPIF variant), red light against darkness",[1],10 fold
same,"normalized SEAP reporter expression in CHO-K1 cells, split transcription factor (AtPhyB PCM-VP16 + E-protein-AtPIF variant), red light against darkness",[2],4 fold
same,"normalized SEAP reporter expression in CHO-K1 cells, split transcription factor (AtPhyB PCM-VP16 + E-protein-AtPIF variant), red light against darkness",P6.A-EYFP,43 fold
